Here are results for 3 molecules from patent publication US7632650B2, “Diagnostics and therapeutic uses of topors” (University of Medicine and Dentistry of New Jersey, priority 2002, dated 2009).

In assay [1] the test system is HeLa cells expressing GFP-topors or GFP-PML. The experiment in a line: imaging of GFP-topors or GFP-PML in nuclear bodies before and after treatment. The following applies: 10 μM, thirty minutes. Format: cell-based, human. The protocol: Acute promyelocytic leukemia, a type of cancer affecting the blood, is characterized by an abnormal block in the development of stem cells. It has now been discovered that topors localizes in nuclear bodies associated with promyelocytic leukemia (PML) oncogenic domains. In these experiments HeLa cells were immunostained with antibodies recognizing both topors and PML. Separate and merged fluorescent images from a representative cell were analyzed. PML nuclear bodies are nuclear depot sites, which are disrupted in cells from patients with promyelocytic leukemia with t (15;17) . Topors relocalized to the nucleoplasm after DNA damage. […] In these experiments, HeLa cells expressing GFP-topors or GFP-PML were imaged before and after treatment with 0.1% DMSO, 10 μM DRB, 10 μM CPT, or 30 μM cycloheximide for thirty minutes.

For a further assay, the system named is mammalian cells. Put plainly: SUMO-2 conjugate formation in cells. Format: cell-based. From the text: Additionally, it was shown that topors functions as an E3-type ubiquitin ligase an E3-type SUMO ligase for topoisomerase and p53. Thus, topors is a dual function ubiquitin and SUMO ligase. Recombinant topors enhances formation of polyubiquitin conjugates by specific E2 ubiquitin enzymes in vitro, with the RING domain necessary and sufficient for this activity. While topors-induced ubiquitination of bacterially expressed top1 was unable to be detected in vitro, similar assays using Ubc9, SAE1/SAE2, and SUMO-1 indicate that topors stimulates formation of top1-SUMO-1 conjugates by Ubc9. […] Instead, this activity maps to the 536-704 region, which contains a nuclear localization sequence and is within the top1-binding region. Ectopic expression of topors in HeLa cells increases formation of SUMO-2 conjugates.
(§1) Reaction products were analyzed using monoclonal anti-p53 and polyclonal anti-IkBα antibodies.

The target in the next assay is p53 (Homo sapiens, UniProt P04637). Put plainly: in vitro sumoylation of p53. Type of assay: biochemical. The following applies: E1 and Ubc9. The protocol: as §1
For another assay, the target named is T1, IkBα (Homo sapiens, UniProt P25963).
T1 sequence (P25963 1-317): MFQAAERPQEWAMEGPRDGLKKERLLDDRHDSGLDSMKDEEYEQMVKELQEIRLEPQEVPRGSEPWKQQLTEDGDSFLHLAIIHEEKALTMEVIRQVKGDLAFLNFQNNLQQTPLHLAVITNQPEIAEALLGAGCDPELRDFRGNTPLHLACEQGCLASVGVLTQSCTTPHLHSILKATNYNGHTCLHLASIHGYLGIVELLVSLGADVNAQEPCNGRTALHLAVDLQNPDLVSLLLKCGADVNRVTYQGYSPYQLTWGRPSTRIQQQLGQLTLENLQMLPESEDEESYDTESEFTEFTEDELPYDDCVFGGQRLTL
The experiment in a line: in vitro sumoylation of IkBα. Format: biochemical. The following applies: E1 and Ubc9. The protocol: as §1

The next assay deals with T2, top1 (Homo sapiens, UniProt P11387).
T2 sequence (P11387 1-765): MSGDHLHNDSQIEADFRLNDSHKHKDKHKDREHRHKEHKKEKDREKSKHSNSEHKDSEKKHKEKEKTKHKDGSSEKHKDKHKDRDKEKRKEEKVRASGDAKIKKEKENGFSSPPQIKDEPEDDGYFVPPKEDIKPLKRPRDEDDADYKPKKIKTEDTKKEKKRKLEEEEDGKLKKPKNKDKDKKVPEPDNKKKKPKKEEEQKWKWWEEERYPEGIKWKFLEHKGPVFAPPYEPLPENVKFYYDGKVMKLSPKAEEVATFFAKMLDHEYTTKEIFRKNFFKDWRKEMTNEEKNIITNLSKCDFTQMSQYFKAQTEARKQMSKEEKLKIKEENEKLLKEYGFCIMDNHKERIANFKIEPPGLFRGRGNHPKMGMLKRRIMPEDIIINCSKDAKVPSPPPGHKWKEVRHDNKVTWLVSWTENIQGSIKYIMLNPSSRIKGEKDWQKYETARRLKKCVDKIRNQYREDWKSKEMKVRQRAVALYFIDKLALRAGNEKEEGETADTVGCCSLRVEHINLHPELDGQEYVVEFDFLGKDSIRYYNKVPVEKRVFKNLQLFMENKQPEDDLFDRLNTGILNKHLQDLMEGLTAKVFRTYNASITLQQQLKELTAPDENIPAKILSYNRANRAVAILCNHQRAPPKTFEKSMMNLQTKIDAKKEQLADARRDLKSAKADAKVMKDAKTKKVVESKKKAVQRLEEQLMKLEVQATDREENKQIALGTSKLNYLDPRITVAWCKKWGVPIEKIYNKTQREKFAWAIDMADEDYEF
The experiment in a line: in vitro top1 sumoylation with purified components. Type of assay: biochemical. The following applies: purified sumo conjugation components, purified top1 and topors. The protocol:
Topors is homologous in the RING domain to proteins implicated in conjugation of ubiquitin and SUMO, such as MDM2 and BRCA1. Previously, it has been shown that topors binds to the N-terminus of top1. […] Topors also redistributes from PML (promyelocytic leukemia) nuclear bodies to a diffuse nuclear localization when exposed to CPT. When incubated with a HeLa cell fraction containing SAE1/SAE2, purified SUMO-1, and purified Ubc9, minimal top1-SUMO conjugates could be detected using Top1 and SUMO antibodies.
Using purified components of the sumo conjugation system as well as purified top1 and topors, top1-SUMO conjugates were detected. Removing any of the sumoylation components or topors abrogated top1 sumoylation.

Assay [2] has as its system cervical cancer cell line. Put plainly: overexpression of topors in cancer cell line. Format: cell-based. The text has this:
The topors protein was not detected in lysates from several different tumor cell lines. In this regard, in matched normal and tumor human tissue specimens, the topors protein was detectable only in normal tissues (FIGS. 3 and 4).

In a further assay the test system is ubiquitin. Put plainly: in vitro ubiquitination reaction with E1, E2 proteins and ubiquitin. Format: biochemical. The following applies: 400 ng E1, 200 ng E2, 3 μg ubiquitin, ~100 ng GST-topors or GST. The protocol: This analysis was carried out using reactions containing 400 ng E1, 200 ng of various E2 proteins, 3 μg of ubiquitin, and either ˜100 ng GST-topors or GST. Reaction products were resolved by SDS-PAGE under reducing conditions. Migration of probable poly-ubiquitin chains was determined. All E2s were active as assessed by thiolester formation.

Chain of p53 (P04637 whole entry, species assumed): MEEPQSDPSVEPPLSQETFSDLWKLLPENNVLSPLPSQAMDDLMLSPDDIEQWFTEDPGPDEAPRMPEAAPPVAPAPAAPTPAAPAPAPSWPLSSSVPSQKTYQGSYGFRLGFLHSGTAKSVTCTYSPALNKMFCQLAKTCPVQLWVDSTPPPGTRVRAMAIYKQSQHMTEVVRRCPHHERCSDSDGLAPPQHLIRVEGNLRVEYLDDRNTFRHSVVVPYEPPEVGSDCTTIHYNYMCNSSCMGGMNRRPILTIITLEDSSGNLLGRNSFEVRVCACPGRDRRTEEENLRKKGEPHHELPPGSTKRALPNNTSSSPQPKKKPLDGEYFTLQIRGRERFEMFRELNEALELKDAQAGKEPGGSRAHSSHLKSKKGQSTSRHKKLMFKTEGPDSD

As to `CC[C@@]1(O)C(=O)OCc2c1cc1n(c2=O)Cc2cc3ccccc3nc2-1` [CPT, camptothecin], the “dispersion of topors / PML from nuclear bodies” value in assay [1] is recorded as “induce rapid dispersion of topors but not PML from nuclear bodies”.
On the same count and under the same terms, the entry for `OC[C@H]1O[C@@H](n2cnc3cc(Cl)c(Cl)cc32)[C@H](O)[C@@H]1O` [DRB] is “induce rapid dispersion of topors but not PML from nuclear bodies”.

B1: topors: RING protein that binds topoisomerase 1 and p53; dual E3 ubiquitin/SUMO ligase (protein)
chain: MGSQPPLGSPLSREEGEAPPPAPASEGRRRSRRVRLRGSCRHRPSFLGCRELAASAPARPAPASSEIMASAAKEFKMDNFSPKAGTSKLQQTVPADASPDSKCPICLDRFDNVSYLDRCLHKFCFRCVQEWSKNKAECPLCKQPFDSIFHSVRAEDDFKEYVLRPSYNGSFVTPDRRFRYRTTLTRERNASVYSPSGPVNRRTTTPPDSGVLFEGLGISTRPRDVEIPQFMRQIAVRRPTTADERSLRKIQEQDIINFRRTLYRAGARVRNIEDGGRYRDISAEFFRRNPACLHRLVPWLKRELTVLFGAHGSLVNIVQHIIMSNVTRYDLESQAFVSDLRPFLLNRTEHFIHEFISFARSPFNMAAFDQHANYDCPAPSYEEGSHSDSSVITISPDEAETQELDINVATVSQAPWDDETPGPSYSSSEQVHVTMSSLLNTSDSSDEELVTGGATSQIQGVQTNDDLNNDSDDSSDNCVIVGFVKPLAERTPELVELSSDSEDLGSYEKMETVKTQEQEQSYSSGDSDVSRCSSPHSVLGKDEQINKGHCDSSTRIKSKKEEKRSTSLSSPRNLNSSVRGDRVYSPYNHRHRKRGRSRSSDSRSQSRSGHDQKNHRKHHGKKRMKSKRSRSRESSRPRGRRDKKRSRTRDSSWSRRSQTLSLSSESTSRSRSRSSDHGKRRSRSRNRDRYYLRNNYGSRYKWEYTYYSRNKDRDGYESSYRRRTLSRAHYSRQSSSPEFRVQSFSERTNARKKNNHSERKYYYYERHRSRSLSSNRSRTASTGTDRVRNEKPGGKRKYKTRHLEGTNEVAQPSREFASKAKDSHYQKSSSKLDGNYKNESDTFSDSRSSDRETKHKRRKRKTRSLSVEIVYEGKATDTTKHHKKKKKKHKKKHKKHHGDNASRSPVVITIDSDSDKDSEVKEDTECDNSGPQDPLQNEFLAPSLEPFETKDVVTIEAEFGVLDKECDIATLSNNLNNANKTVDNIPPLAASVEQTLDVREESTFVSDLENQPSNIVSLQTEPSRQLPSPRTSLMSVCLGRDCDMS
For the molecule B1, in the assay on mammalian cells, the SUMO-2 conjugates entry is given as “increases SUMO-2 conjugates”. In the assay with p53, the “sumoylation of p53” value is “activates sumoylation of p53”. Besides, the “sumoylation of IkBα” value with IkBα was “not IkBα”. Also, in the assay with top1, the “top1 sumoylation in vitro” value was “enhances top1 sumoylation in vitro”. The “effect of overexpression on cancer cells” value in assay [2] is “cell death”. The “E3 ubiquitin ligase function (poly-ubiquitin chains)” value in the assay with ubiquitin was “functions as an E3 ubiquitin ligase”.
